Reference: patent US7026443

Assays:
HLA-A*2402 (human) = assay: inhibition of 125I-labelled standard peptide binding to purified HLA-A*2402, gel filtration
HLA-A*0301 (human) [1] = assay: competition with 125I-labelled standard probe peptide for purified HLA-A*0301, gel filtration
HLA-A*0201 (human) [2] = assay: competition with 125I-labelled standard peptide for purified HLA, gel filtration
HLA-A*0201 (human) [3] = assay: competition against 125I-labelled standard peptide on purified HLA-A*0201, gel filtration
HLA-A*0201 (human) [4] = assay: competition with 125I-labeled standard probe peptide for purified HLA-A*0201, gel filtration
HLA-A*0301 (human) [5] = assay: competition with a 125I-labelled standard peptide for purified HLA-A*0301, bound and free separated by gel filtration
HLA-A*1101 (human) [6] = assay: competition with 125I-labelled standard peptide for purified HLA, gel filtration
HLA-A*3101 (human) = assay: as above
HLA-A*3301 (human) = assay: as above
HLA-A*6801 (human) = assay: as above
HLA-A*0301 (human) [7] = assay: as above
HLA-A*0301 (human) [8] = assay: competition with 125I-labelled standard peptide for purified HLA-A*0301, gel filtration
HLA-A*1101 (human) [9] = assay: inhibition of 125I-labeled standard peptide binding to purified HLA-A*1101, gel filtration
HLA-A*1101 (human) [10] = assay: competition with 125I-labeled standard probe peptide for purified HLA-A*1101, gel filtration
HLA-A*0201 (human) [11] = assay: competition with 125I-labelled standard peptide on purified HLA, gel filtration; settings: remark: other sources report otherwise
HLA-A*0206 (human) = assay: as above; settings: remark: other sources report otherwise
HLA-A*0203 (human) = assay: as above; settings: remark: other sources report otherwise

Question: HYSDSVYGDTL (modifications not checked) [… (HPV18 E6, position 80, 11 amino acids)] was tested. Which relative binding ratio (IC50 of standard peptide / IC50 of test peptide) (HLA-A*2402 (human)) did it give?
Answer: 0.0069

Question: With EGTGCNGWFY (modifications not checked) [HPV16 E1 peptide … (position 11, 10 amino acids)] as the binder, how does the binding affinity ratio relative to the standard peptide (IC50 standard / IC50 test) (HLA-A*0301 (human) [1]) read?
Answer: 0.0005

Question: Which binding affinity ratio relative to the standard peptide (IC50 standard / IC50 test) (HLA-A*0301 (human) [1]) does the source give for EGTGCNGWF (modifications not checked) [HPV16 E1 peptide … (position 11, 9 amino acids)] here?
Answer: 0.0008

Question: For IAEGFKTLI (modifications not checked) [HPV18 E1 254 peptide …], which binding affinity ratio (IC50 of standard peptide / IC50 of test peptide) (HLA-A*0201 (human) [2]) is on record?
Answer: 0.0003

Question: For KLLSKLLCV (modifications not checked) [HPV16 E1 292 …], which relative binding ratio (IC50 of standard peptide / IC50 of test peptide) (HLA-A*0201 (human) [3]) is on record?
Answer: 0.051

Question: How did the relative binding ratio (IC50 of standard peptide / IC50 of test peptide) (HLA-A*0201 (human) [4]) turn out when STLRLCVQST (modifications not checked) [HPV31 E7 peptide … (position 63, 10 amino acids)] was run?
Answer: 0.0012

Question: How did the relative binding ratio (IC50 of standard peptide / IC50 of test peptide) (HLA-A*2402 (human)) turn out when CMCCKCEARI (modifications not checked) [… (HPV18 E7, position 63, 10 amino acids)] was run?
Answer: 0.0001

Question: With QPPKLRSSVA (modifications not checked) [HPV18 E1 315 peptide …] as the binder, how does the binding affinity ratio (IC50 of standard peptide / IC50 of test peptide) (HLA-B*5101 (human)) read?
Answer: 0.0002

Question: And the binding affinity ratio (IC50 of standard peptide / IC50 of test peptide) (HLA-B*3501 (human))?
Answer: 0.0003

Question: And the binding affinity ratio (IC50 of standard peptide / IC50 of test peptide) (HLA-B*5301 (human))?
Answer: 0.0002

Question: And the binding affinity ratio (IC50 of standard peptide / IC50 of test peptide) (HLA-B*5401 (human))?
Answer: 0.039

Question: LACSWGMVV (modifications not checked) [HPV16 E1 267 …] was tested. Which relative binding ratio (IC50 of standard peptide / IC50 of test peptide) (HLA-A*0201 (human) [3]) did it give?
Answer: 0.0006

Question: LSFVCPWCA (modifications not checked) [HPV45 E7 peptide … (position 95, 9 amino acids)] was tested. Which relative binding ratio (IC50 of the standard peptide / IC50 of the test peptide) (HLA-A*0301 (human) [5]) did it give?
Answer: 0.0005

Question: For IHDIILECVY (modifications not checked) [… (HPV16 E6, position 30, 10 amino acids)], which relative binding ratio (IC50 of standard peptide / IC50 of test peptide) (HLA-A*0101 (human)) is on record?
Answer: 0.028

Question: What does the source list for LIRCINCQK (modifications not checked)?
Answer: binding affinity ratio (IC50 of standard peptide / IC50 of test peptide) (HLA-A*1101 (human) [6]): 0.0009; binding affinity ratio (IC50 of standard peptide / IC50 of test peptide) (HLA-A*3101 (human)): 0.0012; binding affinity ratio (IC50 of standard peptide / IC50 of test peptide) (HLA-A*3301 (human)): 0.0041; binding affinity ratio (IC50 of standard peptide / IC50 of test peptide) (HLA-A*6801 (human)): 0.0021; binding affinity ratio (IC50 of standard peptide / IC50 of test peptide) (HLA-A*0301 (human) [7]): 0.0025

Question: GMVVLLLVR (modifications not checked) [HPV16 E1 272 …] was tested. Which binding affinity ratio (IC50 of standard peptide / IC50 of test peptide) (ratio to standard peptide) (HLA-A*0301 (human) [8]) did it give?
Answer: 0.0036

Question: What about the relative binding ratio (IC50 of standard peptide / IC50 of test peptide) (HLA-A*1101 (human) [9]) of the same binder?
Answer: 0.0082

Question: How did the binding affinity ratio (IC50 of standard peptide / IC50 of test peptide) (HLA-A*1101 (human) [6]) turn out when CMSCCRSSR (modifications not checked) was run?
Answer: 0.0001

Question: And the binding affinity ratio (IC50 of standard peptide / IC50 of test peptide) (HLA-A*3101 (human))?
Answer: 0.082

Question: And the binding affinity ratio (IC50 of standard peptide / IC50 of test peptide) (HLA-A*3301 (human))?
Answer: 0.12

Question: And the binding affinity ratio (IC50 of standard peptide / IC50 of test peptide) (HLA-A*6801 (human))?
Answer: 0.0011

Question: What about the binding affinity ratio (IC50 of standard peptide / IC50 of test peptide) (HLA-A*0301 (human) [7]) of the same binder?
Answer: 0.0033

Question: For WLQPLADAK (modifications not checked) [HPV31 E1 489 peptide … (SEQ ID NO: 41921)], which relative binding ratio (IC50 of standard peptide / IC50 of test peptide) (HLA-A*1101 (human) [10]) is on record?
Answer: 0.0002

Question: EGTGCNGWFY (modifications not checked) [HPV18 E1 peptide … (position 10, 10 amino acids)] was tested. Which relative binding ratio (IC50 of standard peptide / IC50 of test peptide) (ratio to standard peptide) (HLA-A*0301 (human) [5]) did it give?
Answer: 0.0005

Question: With EGTGCNGWF (modifications not checked) [HPV18 E1 peptide … (position 10, 9 amino acids)] as the binder, how does the relative binding ratio (IC50 of standard peptide / IC50 of test peptide) (ratio to standard peptide) (HLA-A*0301 (human) [5]) read?
Answer: 0.0008

Question: For ILLTTNIHPA (modifications not checked) [HPV18 E1 569 peptide …], which binding affinity ratio (IC50 of standard peptide / IC50 of test peptide) (HLA-A*0201 (human) [2]) is on record?
Answer: 0.08

Question: With TLGIVCPI (modifications not checked) [HPV16 E7 86 TLGIVCPI] as the binder, how does the binding affinity ratio (IC50 of standard peptide / IC50 of test peptide) (HLA-A*0201 (human) [11]) read?
Answer: 0.15

Question: What about the binding affinity ratio (IC50 of standard peptide / IC50 of test peptide) (HLA-A*0206 (human)) of the same binder?
Answer: 0.54

Question: What about the binding affinity ratio (IC50 of standard peptide / IC50 of test peptide) (HLA-A*0203 (human)) of the same binder?
Answer: 0.0005
